In patent US6379664:

Tests used:
[1] = biological target: alpha crystalline-cystine mixed disulfide
[2] = biological target: gamma crystallin-GSH mixed disulfide
[3] = biological target: BSA-GSH mixed disulfide, P02769
[4] = biological target: alpha crystallin-GSH mixed disulfide
[5] = biological target: G3PD from H2O2 (0.5 mM) pretreated rabbit lens epithelial cells
[6] = biological target: protein-cysteine mixed disulfides (PSSC); experiment: cell-based or functional assay

Sequence of BSA-GSH mixed disulfide, P02769 (P02769 25-607): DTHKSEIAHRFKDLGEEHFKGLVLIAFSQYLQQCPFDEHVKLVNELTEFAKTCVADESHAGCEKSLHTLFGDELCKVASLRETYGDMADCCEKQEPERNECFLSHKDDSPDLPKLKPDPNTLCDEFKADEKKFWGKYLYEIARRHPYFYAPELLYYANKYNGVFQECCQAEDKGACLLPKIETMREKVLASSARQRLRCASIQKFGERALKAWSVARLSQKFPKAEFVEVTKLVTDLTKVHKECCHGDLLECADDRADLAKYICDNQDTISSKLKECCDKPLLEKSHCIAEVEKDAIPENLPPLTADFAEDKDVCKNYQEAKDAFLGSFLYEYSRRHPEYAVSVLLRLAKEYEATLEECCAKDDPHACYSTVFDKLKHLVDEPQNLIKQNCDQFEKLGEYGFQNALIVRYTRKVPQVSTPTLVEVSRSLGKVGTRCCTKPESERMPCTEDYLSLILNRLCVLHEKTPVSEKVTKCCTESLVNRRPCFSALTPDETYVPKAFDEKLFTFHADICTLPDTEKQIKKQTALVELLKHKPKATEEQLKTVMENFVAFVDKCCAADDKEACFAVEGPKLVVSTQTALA

B1: recombinant human lens thioltransferase (protein)
chain: AQEFVNCKIQPGKVVVFIKPTCPFCVKTQELLSQLPFKEGLLEFVDITATSDTNEIQDYLQQLTGARTVPRVFIGKECIGGCTDLESMHKRGELLTRLQQIGALK
Question: How did the “dethiolation of 14C-PSSC” value [1] turn out when B1 was run?
Answer: alpha crystalline-cystine mixed disulfide could not be dethiolated by lens thioltransferase

Question: And the “dethiolation of 3H-PSSG (nmol dethiolated per µg thioltransferase protein; TCA-soluble radioactivity)” value [2]?
Answer: 1.15 nmol/µg thioltransferase

Question: And the “substrate preference in dethiolation” value [2]?
Answer: Gamma crystallin-thiol mixed disulfide appears to be the favorable substrate for lens thioltransferase

Question: And the “dethiolation of 3H-PSSG (nmol dethiolated per µg thioltransferase protein; TCA-soluble radioactivity)” value [3]?
Answer: 0.3 nmol/µg thioltransferase

Question: What about the “dethiolation of 3H-PSSG (nmol dethiolated per µg thioltransferase protein; TCA-soluble radioactivity)” value [4] of the same binder?
Answer: 0.6 nmol/µg thioltransferase

Question: And the “regeneration of G3PD activity (percent of activity regenerated by 30 mM DTT)” value [5]?
Answer: regeneration of G3PD from H2O2 (0.5 mM) pretreated rabbit cells by recombinant human lens thioltransferase

B2: recombinant human lens thioltransferase, P12309 2-106 (enzyme)
chain: B1 chain
Question: With B2 as the binder, how does the dethiolation of PSSC relative to PSSG [6] read?
Answer: 50 to 60%
